Source: the nanobody polyreactivity screen of Harvey et al. (2022)

Assay: yeast display, Sf9 membrane polyspecificity reagent, FACS + sequencing; frameworks hold sequencing errors
How it was run: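 Genes from sorted yeast were amplified by colony PCR, read by MiSeq 2 × 250 sequencing and filtered on CDR length. These cells carried a synthetic nanobody library in Saccharomyces cerevisiae BJ5465 and were sorted by FACS into low and high (top ~1%) gates on anti-HA and streptavidin fluorescence. Polyreactivity is labelled according to the gate of origin.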

Sequence	polyreactivity (PSR sort gate)
QVQLVESRGRLDQAGGSLRLSCAAYARIFAVYAMGWYRQAPGKESEFVATITYNAGSTYYADSVKGRFTISRDNAKNTVNLQMNSLKPEDTAVYYCAVELDSEPAYEPWTEYDYWGQGTQVTVSS	low polyreactivity
QVQLVESGGGLVQAGGSLRLSCAASGFTFRRNAMGWYLQAPGKERELVARISSGGSTNYADSVKGRFTISRDNAKNTVYLQMNSLKPEDSAVYYCATGKGPYPYRQRYGYWGQGTKVTVSS	high polyreactivity
QVQLVESGGGLVQAGGSLRLSCAASGRIFNGNAMGWYRQAPGKERELVAAISTSGGRTYYADSVKGRFTISRDNAKNTVYLQMNSLKPEDTAVYYCAARYFRRDYIDYDYWGQGTQVTVSS	low polyreactivity
QVQLVESGGGFVQAGGRLRLSCAASGRTFKYYAMGWYRPAPGKDRELVAAISRGGSTNYADSVKGRFTISRDNAKNTVYLQLTSLNPEDTAVYYCAADQVTDYWWRGYEYWGQGTQVTVSS	low polyreactivity
QVQLVESGGGLVQAGGSLRLSCAASGRIFWDYALGWYRQAPGKERELVAVITFSGDSTYYADSVKGRFTISRDNAKNTVYVQMNSLKPEDTAVYYCAAARAIRQFWYVATFEYWGQGTQVTVSS	low polyreactivity
QVQLVESGGGLVQAGGSLRLSCAASGRNFGPYAMGWYRQAPGKERELVAVISTRGGITNYADSVKGRFTISRDTAKNTVYVQLNSLKPEDTAVYYCAARFSYPYRIAFNYWGQGTQVTVSS	low polyreactivity
QVQLVESGGGLVQAGGSLRLSCAASGSISYLYAMGWYRQAPGKERELVAAISRSGASTYYADSVKGRFTISRDNAKNTVYLQMNSLKPEDTAVYYCAAYKIWGRVRYDYWGQGTQVTVSS	low polyreactivity
QVQLVESGGGLVQAGGSLRLSCAASGSIFARYAMGWYRQAPGKERELVAAITRSGVSTYYADSVKGRFTISRDNAKNTVYLQMNSLKPEDTAVYNCNAYYPIRSTPYGYYYWGQGTQVTVSS	high polyreactivity
QVQLVESGGRLVQAGGSLRLSCAASGFTFVEYAMGWYRQAPGKERELVAANSRSGSTYYADSVKGRFTISRDNSKNTVYLQMNSLKPEDTAVYYCATLVYRKQYSRYDYWGQGTQVTVSS	high polyreactivity
QVQLVESGGGIDQAGGSLRLICAASGRTFTQYAMRWSRQAHGKERELVAAITRSGGSTYYADSVKGRFTISRDNAKNTVYVLMNILKPEDTAVYYCAKRPAYRSTQTFDFWGQGTQVTVSS	high polyreactivity
QVQLVESGGGLVQAGGSLRLSCAASGFTFARYVMGWYRQAPGKERELVAAISWRGTRTFYADSVKGRFTISRDNAKNTVYLQMNSLKPEDTAVYYCAADSRPPKYDYWGQGTQVTVSS	high polyreactivity
QVQLVESGGGLVQAGGSLRLSCAASGSTFPKNAKGWYRPAPGKERELVAAINTGGSTYYADSVKGRFTISRDNAKNTVYLQMNSLKPEDTAVYYCAARDNYHRDVGHPYDYWGQGTQVTVSS	low polyreactivity
QVQLVESGGGLVQAGGSLRLSCAASGRTFVGNAMGWYRQAPGKERELVADITWSGDITYYADSVKGRFTISRDNAKNTVYLQMHSLKPEDTAVYYCAADYHRRRTDYDYWGQGTQVTVSS	low polyreactivity
QVQLVESGGGLVQAGGSLRLSCAASGSIFDTNAMGWYRQAPGKERELVAAISFSGVRTYYADSVKGRFTISRDNAKNTVYLLMNSLKPEDTAVYYCNRLRISPGWRYNYWGQGTQVTVSS	high polyreactivity
QVQLVESGVGLVQAGGSLRLSCAASGSIFGVNMGWYRQAPGKERELVASITSGGSTNYADSVKGRFTISRDNAKNTVYLQMNSLKPEDTAVYYCATDRYVWGQGTQVTVSS	low polyreactivity
QVQLVESGGGLVQAGGSLRLSCAASGTFKWYAMGWYRQAPGKERELVAVISSSSSTNYADSVKGRFTISRDNAKNTVYLQMNSLKPKIPAVYYCNAKWTTLFDYWGQGTQVTVSS	high polyreactivity
QVQLVESGGGLVQAGGSLRLSCAASGRIFGLYAMGWYRQAPGKERELVASISQSGANTYYADSVKGRFTISRDNAKNTVYLQMNCQKPEDTAVSYCAAKRYDRYYYWVGYWGQGTQVIVSS	low polyreactivity
QVQLVESGGGLVQAGGSLRLSCAASGFIFTNVMGWYRQAPGKERELVAAISGRGTSTYYADSVKGRFTISRDNAKNTVYLQMNSLKPEDTAVYYCAAYFTSRLDYWGQGTQVTVSS	high polyreactivity
QVQLVESGGALVQAGGSLRLSCAASGPIFGVYAMGWYRQAPGKERELVAAITYTGASTYYADSVKGRFTISRDNAKNTVYLQMNSLKPEDTAVYYCAGRLWRRSRFDYWGQGTQVTVSS	high polyreactivity
QVQLVESGGGLVQAGGSLRLSCAASGSTFYFYVLGWYRQAPGKERELVAAISWGGASTYYAVSVKGRFTISRDHAKNTVYLQLNSLKPEDTAVYNCTDRLRVRYDYWGQGTQVTVSS	low polyreactivity
QVQLVESGGGLVQAGGSLRLSCAASGSTFTRYAMGWYRQAPGKERELVAGITGRGGSTYYADSVKGRFTISRDNAKNTVYLQMNSLKPEDTAVYYCNKRRRGVTTYDYWGQGTQVTVSS	high polyreactivity

Sequence	polyreactivity (PSR sort gate)
QVQLVESGGGLVQAGGSLRLSCAASGRTIVSNAMGWYRQAPGKERELVAAITRGSRTYYADSVKGRFTISRDNAKNTVYLQMNILKPEDTAVYYCAAYRDYGSYGSWGQGTQVTVSS	high polyreactivity
QVQLVESGGGLVQAGGSLRLSCAASGSIFTDNVMGWYSQAPGKERELVAAITYSAASTYYADSVKGRFTISRDNAKNTVYLQMNSLKPEDTAVYYCNARIIYRKWLFRSGTFNYWGQGTQVTVSS	low polyreactivity
QVQLVESGGGLVQAGGSLRLSCAASGFIFYDYAMGWYRQAPGKEREMVAGITDSGGSTSYADSVKGRFTISRDNAKNTVYLQMNSLKPEDTAVYYCAADNYVRAGINYDYWGQGTQVTVSS	low polyreactivity
QVQLVESGGGLVQAGGSLRLSCAASGGIFRYYAMGWYRQAPAKERELVAAISSGGRTYYADSVKGRFTISRDNAKTTVYLQMNSLKPEDTAVYYCNADRYWGYDYWGQGTQVTVSS	high polyreactivity
QVQLVESGGGLVQAGGSLRLSCAASGSIFTRNAMGWYRQAPGKERELVAAISWRGGITNYADSVKGRFTISRDNAKNTVYLQMNSLKPEDTAVYYCNKIRTRGGYGYWGQGTQVTVSS	high polyreactivity
QVQLVESGGGLVQAGGSLRLSCDASGFIFYYNAMGWYRQAPGKESELVAGISWDGSTYYADSVKGRFTISRDNAKNTVYLQMNSLKPEETAVYYCAAALLDDYFDLFIFGYWGQGTQVTVSS	low polyreactivity
QVQLVESGGGLVQAGGSLRLSCAASGSIFNYNAMGWYRQAPGKERELVAAISWSGGSTYYADSVKGRFTISRDNAKNTVYLQMNSLKPEDTAVYYCAVATGLLYKSHGYWGQGTQVTVSS	low polyreactivity
QVQMQESGGGLVQAGGTLRLSCAASGSFSADEDMGWYRQAQGKEREFVAGISVGGNTNYADSVKGRFTISRENAKNTVYLQINSLKPEDTAVYYCAVLQDVYDALDYWAQGTQVTVSS	high polyreactivity
QVQLVESGGGLVQAGGSLRLSCAASGSIFAYYTMGWYRQAPGNERELVAALSRSGGSTNYADSVKGRFTISRDNAKNTVYLQMISLKPEDTAVYYCAVRRYSRRLFGYYYWGQGTQVTVSS	high polyreactivity
QVQLVESGGGLVQAGGSLRLSCAASGFTFQGNVMGWYRQAPGKERELVAVITSGGSTYYADSVKGRFTISRDNAKNTVYLQMNSLKPEDTAVYYCAKLYNSYTWKYGYWGQGTQVTVSS	high polyreactivity
QVQLVESGGGLVQAGGSLRLSCAASGITFGYYAMGWSRQAAGKEWELVAAISSGGGTYYADSVKGRFTISRDNAKNTVYLQMNSLKPEDTAVYYCNVLRLYPSMDYWGHGTQVTVSS	high polyreactivity
QVQLQESGGGLVQAGGSLRLTCAASGNISVTGFMGCYRQAPGKERELVASIGIGGTTYYADSVKGRFSISRDNAKNTVYLEMHSLKPEDTAVYYCAARYLYYAYSYWGQGTQVTVSS	low polyreactivity
QVQLVESGGGLDQAGGSLRLSCAASGSTFYSYDMGWYRQAPGKEREMVAAISSGGSTYYADSVKGRFTISRDNAKNTVYLQMNSLKPEDTEVYYCAAKRRATTGYRYDYWGQGTQGTVSS	high polyreactivity
QVQLVESGGGLVQAGGSLRLSCAASGSIFLKYTMGRYRQAPGKERELVAAITSGGTTNYADSVKGRFTISRDNAKNTVYLQMNSLKPEDTAVYYCARDSYQLGLIRDPLEYDYWGQGTQETVSS	low polyreactivity
QVQLVESGGGLVQAGGSLRLSCAASGSIFFFNAMGWSRQAPGKERELVATISDTTDTDYADSVKGRFTISRENGKNTVYLQMNSLKPEDTAVYYCAKVKAWTEYYYWGQGTQVTVSS	low polyreactivity
QVQLVESGGGLVQARGSLRLSCAASGSIIGGNAMGWYRQAPGKERELVATISWSGGSTYYADSVKGRFTISRDKAKNTVYLQMNSLKPEDTAVYYCAKTPYRRYRYGGYTYRTYEYWGQGTQVTVSS	low polyreactivity
QVQLVESGGGLVQAGGSLRLSCAASGSIFESYAMGWYRQAPGKERELVADITYDGGITYYADSVKGRFTISRDNAKNTVYLQMNSLKPEDTAVYYCATEYRYWQSDYSTYFPYDYWGQGTQVTVSS	low polyreactivity
QVQLVESGGGLVQAGGSLRLSCAASVLIFHTYGMGWYRQAPGKERELVADITDGGSTYYADSVKGRFTISRDNAKNTVYLQMNSLKPEDTAVYYCAADERGVFLTYWYFWYDYWGQGTQETVSS	low polyreactivity
QVQLVESGGGLVQAGGSLRISCAASGSTFAGNAMGWYRQAPGKERELVAAIDSSTGSTYYADSVKGRFTISRDNAKNTVYLQMNSLKPEDTAVYYCNKTSFLVKLDYWGQGTQVTVSS	low polyreactivity
QVQLVESGGGLVQAGGSLRLSCAASGSIFGNYVMGWYRPAPGKERELVAAISWSGGTNYADSVKGRFTISRDNAKNTVYLQMNSLKPEDTAVYYCAALSVWSYYTYYYWGQGTQVTVSS	high polyreactivity
